Series [1] concerns the molecule itself. In words: cryo-EM structure; single-particle cryo-EM of purified hZnT1 in LMNG/CHS micelles, 50 mM HEPES-Na pH 7.5, 150 mM NaCl, no Zn2+ supplement, no EDTA treatment; 3.48 Å map, C1.
Series [2] deals with the molecule itself. In words: cryo-EM structure; single-particle cryo-EM of purified hZnT3(50-388) in LMNG/CHS micelles, 50 mM MES pH 6.0, 150 mM NaCl, 1 mM ZnSO4; 3.14 Å map.

B1: human zinc transporter 1 (ZnT1), full-length wild type (natural protein, UniProt Q9Y6M5 1-507, looked up)
chain: MGCWGRNRGRLLCMLALTFMFMVLEVVVSRVTSSLAMLSDSFHMLSDVLALVVALVAERFARRTHATQKNTFGWIRAEVMGALVNAIFLTGLCFAILLEAIERFIEPHEMQQPLVVLGVGVAGLLVNVLGLCLFHHHSGFSQDSGHGHSHGGHGHGHGLPKGPRVKSTRPGSSDINVAPGEQGPDQEETNTLVANTSNSNGLKLDPADPENPRSGDTVEVQVNGNLVREPDHMELEEDRAGQLNMRGVFLHVLGDALGSVIVVVNALVFYFSWKGCSEGDFCVNPCFPDPCKAFVEIINSTHASVYEAGPCWVLYLDPTLCVVMVCILLYTTYPLLKESALILLQTVPKQIDIRNLIKELRNVEGVEEVHELHVWQLAGSRIIATAHIKCEDPTSYMEVAKTIKDVFHNHGIHATTIQPEFASVGSKSSVVPCELACRTQCALKQCCGTLPQAPSGKDAEKTPAVSISCLELSNNLEKKPRRTKAENIPAVVIEIKNMPNKQPESSL
notes: Zinc transporter 1 (ZnT1/SLC30A1), human, full-length wild type, codon-optimised synthetic cDNA; residues 138-240 and 448-507 not modelled in the map; also called hZnT1; SLC30A1; source: HEK293F cells, transfected; not shown: FLAG, C-terminal, cleaved; mCherry, C-terminal, cleaved
Consider B1, for which, in series [1], the “stoichiometry N” value worked out at 2.

B2: human zinc transporter 3 (ZnT3) lacking the N-terminal 49 residues, ZnT3(50-388) (domain or fragment, UniProt Q99726 50-388, looked up)
chain: MPFHHCHRDPLPPPGLTPERLHARRQLYAACAVCFVFMAGEVVGGYLAHSLAIMTDAAHLLADVGSMMGSLFSLWLSTRPATRTMTFGWHRSETLGALASVVSLWMVTGILLYLAFVRLLHSDYHIEGGAMLLTASIAVCANLLMAFVLHQAGPPHSHGSRGAEYAPLEEGPEEPLPLGNTSVRAAFVHVLGDLLQSFGVLAASILIYFKPQYKAADPISTFLFSICALGSTAPTLRDVLRILMEGTPRNVGFEPVRDTLLSVPGVRATHELHLWALTLTYHVASAHLAIDSTADPEAVLAEASSRLYSRFGFSSCTLQVEQYQPEMAQCLRCQEPPQA
notes: Zinc transporter 3 (ZnT3/SLC30A3), human, residues 50-388 (lacking the N-terminal 49 residues); No protease step is described for ZnT3, so the tags were probably still on the chain; also called hZnT3; SLC30A3; source: HEK293F cells, transfected
Regarding B2, the “stoichiometry N” value in series [2] is 2.

The term stoichiometry N denotes the number of molecules, sites or subunits per partner or assembly.

The values are drawn from paper PMC11549101, “Structural insights into human zinc transporter ZnT1 mediated Zn^2+ efflux” (EMBO Reports, 2024).
